Consider five molecules from US8293529B2, “Method for inducing differentiation of pluripotent stem cells into cardiomyocytes” (Daiichi Sankyo Company, Limited, priority 2006, dated 2012).

In one assay the test system is human ES cells. The note with it: rises from 15% without treatment; cited from earlier work.
The subject of assay [1] is mouse ES cells. Put plainly: Appearance rate of EBs exhibiting spontaneous beating. In kind it is cell-based. The conditions noted are these: for occurrence of beating EBs: Wnt proteins added at 10 ng/mL to 50 ng/mL; for appearance rate of beating EBs: recombinant protein added at 1 ng/mL to 100 ng/mL. As for the experimental part: Culture for inducing differentiation of ES cells into cardiomyocytes or neurons was accomplished in a routine manner as follows. ES cells were suspended in LIF-free medium, and the resulting suspension was seeded at 500 cells/50 μL per well of a commercially available 96-well culture plate for spheroid formation (Sumilon Celltight Spheroid; Sumitomo Bakelite Co., Ltd., Japan).
In the early stage of differentiation in ES cells, transient elevations in expression of various Wnt genes were observed prior to the appearance of cardiomyocytes. Then, ES cells at this stage were treated with recombinant Wnt proteins to study the myocardial differentiation-inducing effect of the proteins. Induction of ES cell differentiation was accomplished in the same manner as used in Example 1, except that some of the experimental groups were cultured in medium containing a commercially available recombinant WNT-1 (Peprotech), Wnt-3a (R&D systems) or Wnt-5a (R&D systems) protein. Treatment of ES cells in medium supplemented with a recombinant protein of canonical Wnt such as WNT-1 is hereinafter referred to as “Wnt treatment.”
The above canonical Wnt protein treatment is known to inhibit the action of GSK3β within cells and thereby promote stabilization of β-catenin and its transcription activation ability. Then, further studies were performed to confirm that treatment with various drugs capable of promoting stabilization of β-catenin and its transcription activation ability produced a myocardial differentiation-inducing effect on ES cells, as in the case of Wnt treatment. As drugs capable of promoting stabilization of β-catenin and its transcription activation ability, the following five commercially available compounds were used: GSK3β inhibitors BIO (Calbiochem), GSK3β inhibitor VII (Calbiochem), cell-permeable GSK3β peptide inhibitor (L803-mts; Calbiochem) and SB216763 (Biomol), as well as a Wnt agonist (Calbiochem) that promotes the transcription activation ability of β-catenin without GSK3β inhibition. ES cells were induced to differentiate in the same manner as used in the above Examples, and cultured in medium containing the above compounds during the time period between 48 and 120 hours ([…]) after induction of differentiation, as in the case of recombinant Wnt proteins.

Assay [2] has as its system mouse ES cells. Description: Wnt gene expression during induction of differentiation in ES cells (real-time PCR). The note with it: BMP antagonist treatment 15 ng/mL, 3 days before and immediately after induction; 72 hours after induction of differentiation; vs untreated group. The class given is cell-based. The source says: Various Wnt genes were studied for their expression during differentiation in mouse ES cells. For use in experiments, mouse ES cells were passaged and maintained in an undifferentiated state according to the methods as described in “Manipulating the Mouse Embryo: A Laboratory Manual” (Hogan et al., eds., Cold Spring Harbor Laboratory Press, 1994) and “Embryonic Stem Cells: Methods and Protocols” (Turksen ed., Humana Press, 2002) by using Knockout-DMEM (Invitrogen) medium containing 20% fetal bovine serum, 2 mmol/L L-glutamine and 0.1 mmol/L 2-mercaptoethanol (hereinafter referred to as ESM), supplemented with 1000 U/mL LIF (ESGRO; Chemicon). […]
The EBs thus prepared were collected periodically, and total RNA was prepared with an RNeasy mini kit (Qiagen), followed by DNase treatment. cDNA was synthesized from the DNase-treated total RNA (1 μg) using a SuperScript™ First-Strand Synthesis System for RT-PCR (Invitrogen). Analysis of gene expression was performed with an ABI PRISM 7700 (PE Applied Biosystems) by using a real-time polymerase chain reaction (PCR) quantification system with Lux primers to examine the expression level of each gene. The real-time PCR quantification was accomplished by using the above cDNA as a template and using Platinum Quantitative PCR SuperMix-UDG (Invitrogen) according to the instructions attached thereto. […]

The next assay concerns cmES cells. Put plainly: Immunohistochemical staining of marker proteins in EBs from cmES cells. In kind it is cell-based, common marmoset. The note with it: EBs at 16 days after induction of differentiation. As for the experimental part: Subsequently, immunohistochemical staining was performed in the same manner as used in Example 2 to confirm that beating cells developed in EBs from the Wnt-treated groups were cardiomyocytes producing specific marker proteins. From EBs in the Wnt-treated groups (Wnt-3a, WNT-1) at 16 days after induction of differentiation, frozen sections were prepared and reacted with anti-sarcomeric myosin antibody, anti-GATA-4 antibody or anti-Nkx-2.5 antibody as a primary antibody. After color reaction, these sections were observed under an optical microscope.

The test system of assay [3] is mouse ES cells. Put plainly: Immunohistochemical staining of cardiomyocyte-specific marker proteins in EBs. The conditions noted are these: EBs at 10 days after induction of differentiation. In kind it is cell-based. As for the experimental part:
Subsequently, immunohistochemical staining was performed to confirm that beating cells developed in EBs from the Wnt-treated groups produced cardiomyocyte-specific marker proteins. EBs in the Wnt-treated group (Wnt^48˜120h group) at 10 days after induction of differentiation were freshly embedded in a compound for preparing frozen sections (OCT Compound, Sakura Finetek USA Inc.) and then frozen with liquid nitrogen. The frozen samples were sectioned at 6 μm of thickness and attached on glass slides. These frozen sections were reacted with anti-sarcomeric myosin antibody (MF20; American Type Culture Collection), anti-GATA-4 antibody (C-20; Santa Cruz) or anti-Nkx-2.5 antibody (N-19; Santa Cruz) as a primary antibody and then reacted with a horseradish peroxidase-labeled secondary antibody (Bio-RAD), and finally subjected to a color reaction with ACE (3-amino-9-ethylcarbazole) substrate solution (Nichirei Corporation, Japan) and observed under an optical microscope.

For `Nc1ncn([C@@H]2O[C@H](CO)[C@@H](O)[C@H]2O)c(=O)n1` [5-azacytidine], in the assay on human ES cells, the “percentage of troponin I-positive cells (candidate cardiomyocytes) in EBs” value is 44%.

B1: Chordin: commercially available recombinant Chordin protein (R&D systems), BMP antagonist (protein, UniProt Q9H2X0 27-955, looked up)
Chordin: AGPEPPVLPIRSEKEPLPVRGAAGCTFGGKVYALDETWHPDLGEPFGVMRCVLCACEAPQWGRRTRGPGRVSCKNIKPECPTPACGQPRQLPGHCCQTCPQERSSSERQPSGLSFEYPRDPEHRSYSDRGEPGAEERARGDGHTDFVALLTGPRSQAVARARVSLLRSSLRFSISYRRLDRPTRIRFSDSNGSVLFEHPAAPTQDGLVCGVWRAVPRLSLRLLRAEQLHVALVTLTHPSGEVWGPLIRHRALAAETFSAILTLEGPPQQGVGGITLLTLSDTEDSLHFLLLFRGLLEPRSGGLTQVPLRLQILHQGQLLRELQANVSAQEPGFAEVLPNLTVQEMDWLVLGELQMALEWAGRPGLRISGHIAARKSCDVLQSVLCGADALIPVQTGAAGSASLTLLGNGSLIYQVQVVGTSSEVVAMTLETKPQRRDQRTVLCHMAGLQPGGHTAVGICPGLGARGAHMLLQNELFLNVGTKDFPDGELRGHVAALPYCGHSARHDTLPVPLAGALVLPPVKSQAAGHAWLSLDTHCHLHYEVLLAGLGGSEQGTVTAHLLGPPGTPGPRRLLKGFYGSEAQGVVKDLEPELLRHLAKGMASLMITTKGSPRGELRGQVHIANQCEVGGLRLEAAGAEGVRALGAPDTASAAPPVVPGLPALAPAKPGGPGRPRDPNTCFFEGQQRPHGARWAPNYDPLCSLCTCQRRTVICDPVVCPPPSCPHPVQAPDQCCPVCPEKQDVRDLPGLPRSRDPGEGCYFDGDRSWRAAGTRWHPVVPPFGLIKCAVCTCKGGTGEVHCEKVQCPRLACAQPVRVNPTDCCKQCPVGSGAHPQLGDPMQADGPRGCRFAGQWFPESQSWHPSVPPFGEMSCITCRCGAGVPHCERDDCSLPLSCGSGKESRCCSRCTAHRRPAPETRTDPELEKEAEGS
B1: the “regions of EBs exhibiting beating” value in the assay with mouse ES cells [1] (Wnt 48-96 h and 48-120 h groups, Chordin-treated EBs) is given as “beating throughout virtually all regions of their surface layer”. The “expression levels of the Wnt genes (Wnt-3, Wnt-3a, Wnt-8a)” value in the assay with mouse ES cells [2] is recorded as “significantly higher than those of the untreated group”.

B2: WNT-1: commercially available recombinant human-derived WNT-1 protein (Peprotech), canonical Wnt (protein, listed as Mus musculus)
chain: MGLWALLPSWVSTTLLLALTALPAALAANSSGRWWGIVNIASSTNLLTDSKSLQLVLEPSLQLLSRKQRRLIRQNPGILHSVSGGLQSAVRECKWQFRNRRWNCPTAPGPHLFGKIVNRGCRETAFIFAITSAGVTHSVARSCSEGSIESCTCDYRRRGPGGPDWHWGGCSDNIDFGRLFGREFVDSGEKGRDLRFLMNLHNNEAGRTTVFSEMRQECKCHGMSGSCTVRTCWMRLPTLRAVGDVLRDRFDGASRVLYGNRGSNRASRAELLRLEPEDPAHKPPSPHDLVYFEKSPNFCTYSGRLGTAGTAGRACNSSSPALDGCELLCCGRGHRTRTQRVTERCNCTFHWCCHVSCRNCTHTRVLHECL
Turning to B2, in the assay on mouse ES cells [1], the “occurrence of beating EBs” value is on record as “very good occurrence of beating EBs” and the “appearance rate of beating EBs” value is reported as “significantly higher than in the untreated group”. Further, in the assay on cmES cells, the “cells positive for sarcomeric myosin, GATA-4 and Nkx-2.5” value was “the great majority of EB-constituting cells were found to be positive”.

B3: DAN: commercially available recombinant DAN protein (R&D systems), BMP antagonist (protein, UniProt P41271 17-181, looked up)
Neuroblastoma suppressor of …: AAPPPINKLALFPDKSAWCEAKNITQIVGHSGCEAKSIQNRACLGQCFSYSVPNTFPQSTESLVHCDSCMPAQSMWEIVTLECPGHEEVPRVDKLVEKILHCSCQACGKEPSHEGLSVYVQGEDGPGSQPGTHPHPHPHPHPGGQTPEPEDPPGAPHTEEEGAED
On to B3, for which, in the assay on mouse ES cells [2], the “expression levels of the Wnt genes (Wnt-3, Wnt-3a, Wnt-8a)” value is “significantly higher than those of the untreated group”. In the assay with mouse ES cells [3], the “cells positive for sarcomeric myosin, Nkx-2.5 and GATA-4” value is “the great majority of EB-constituting cells were found to be positive”.

B4: Wnt-5a: commercially available recombinant mouse-derived Wnt-5a protein (R&D systems) (protein, listed as Mus musculus)
chain: MKKPIGILSPGVALGTAGGAMSSKFFLMALATFFSFAQVVIEANSWWSLGMNNPVQMSEVYIIGAQPLCSQLAGLSQGQKKLCHLYQDHMQYIGEGAKTGIKECQYQFRHRRWNCSTVDNTSVFGRVMQIGSRETAFTYAVSAAGVVNAMSRACREGELSTCGCSRARPKDLPRDWLWGGCGDNIDYGHPFAKEFVDARERERIHAKGSYESARILMNLHNNEAGRRTVYNLADVACKCHGVSGSCSLKTCWLQLADFRKVGDALKEKYDSAAAMRLNSRGKLVQVNSRFNSPTTQDLVYIDPSPDYCVRNESTGSLGTQGRLCNKTSEGMDGCELMCCGRGYDQFKTVQTERCHCKFHWCCYVKCKKCTEIVDQFVCK
As to B4, in the assay on mouse ES cells [1], the “occurrence of beating EBs” value is on record as “very good occurrence of beating EBs” and the “appearance rate of beating EBs” value is “significantly higher than in the untreated group”.
